Test results taken from PMC12149299 (Cell Discovery, 2025).

Tests used:
[1] = target: T1, HIV-1 gp120 protein from the JRCSF.JB strain (HIV-1 group M subtype B, JRCSF (clone …, UniProt P20871, strain)); experiment: ELISA; conditions: both partners purified
[2] = target: HIV-1 Env on TNF-α-activated ACH-2 latent HIV-1 cells (HIV-1 group M subtype B, BRU/LAI (ACH-2 …, UniProt P03377, strain)); experiment: flow cytometry on cells; conditions: one partner purified
HIV Env on HL2/3 cells = target: T2, HIV Env on HL2/3 cells (HIV-1 group M subtype B, HXB2 (stand-in …, UniProt P04578, strain)); experiment: flow cytometry on cells; conditions: one partner purified
T2 construct: source: HL2/3 cells (NIH AIDS Program), expressing HIV Env, on the cell surface

[3] = target: T1, HIV-1 gp120 protein from the JRCSF.JB …; experiment: ELISA; antigens (2 μg/mL) coated on 96-well plates overnight at 4 °C; antibodies serially diluted in disruption buffer, 1 h; HRP goat anti-human IgG, ABTS, 405 nm; conditions: both partners purified
[4] = target: HIV-1 gp120 protein from the YU2.DG strain (HIV-1 group M subtype B, YU-2 (clone …, UniProt P35961, strain)); experiment: as above; conditions: both partners purified
[5] = target: HIV-1 gp120 protein from the BaL.01 strain (HIV-1 subtype B, BaL.01, UniProt Q2MKA9, strain); experiment: as above; conditions: both partners purified

Measured: binding result

B1: CH235.12 (antibody, V domains shown)
VH: QVRLAQYGGGVKRLGATMTLSCVASGYTFNDYYIHWVRQAPGQGFELLGYIDPANGRPDYAGALRERLSFYRDKSMETLYMDLRSLRYDDTAMYYCVRNVGTAGSLLHYDHWGSGSPVIVSS
VL: EIVLTQSPATLSASPGERVTLTCRASRSVRNNVAWYQHKGGQSPRLLIYDASTRAAGVPARFSGSASGTEFTLAISNLESEDFTVYFCLQYNNWWTFGQGTRVDIK
binds: [1]

B2: FD22 (antibody, V domains shown)
VH: QVQLSQSGGGAVQPGKSLTLSCRAYGFHLFSYVVVWVRQTPQNGLEWVAGAASGGWPQEFMNSVRGRFSISRDDYTVSLQMNALRVDDSGLYFCAQERGLHRLDGAVKFGRWFRAWGQGSQVVVTS
VL: QSALTQPASVSGSPGQSITLSCTGADNSVSWYQVVPGRAPKLLIFEVNVRPSEVSDRFSGSKSGDTASLTISRLQIEDESDYYCVTRRGDVTYLFGSGTRVSVL
notes: also called FD22-biotin
not listed: [1]
binds: all other assays above
